Source: PMC7145629
Read-outs that look alike come from different tables or passages of the source.

Columns and labels:
Assay in all cases: EMSA
[1] = target: T1, DNMT1 (BAH1-BAH2-MTase fragment) (human, UniProt P26358 728-1600)
[2] = target: T1, DNMT1 (BAH1-BAH2-MTase fragment); remark: listed apart in the source
[3] = target: T1, DNMT1 (BAH1-BAH2-MTase fragment); remark: listed apart in the source
DNMT3B;DNMT3L = DNMT3B;DNMT3L (human;human, UniProt Q9UBC3;Q9UJW3 562-853;178-386, |)
DNMT3A;DNMT3L = DNMT3A;DNMT3L (human;human, UniProt Q9Y6K1;Q9UJW3 628-912;178-386, |)
DNMT3A;DNMT3L, sequence (Q9Y6K1 628-912, chain 1 of 2): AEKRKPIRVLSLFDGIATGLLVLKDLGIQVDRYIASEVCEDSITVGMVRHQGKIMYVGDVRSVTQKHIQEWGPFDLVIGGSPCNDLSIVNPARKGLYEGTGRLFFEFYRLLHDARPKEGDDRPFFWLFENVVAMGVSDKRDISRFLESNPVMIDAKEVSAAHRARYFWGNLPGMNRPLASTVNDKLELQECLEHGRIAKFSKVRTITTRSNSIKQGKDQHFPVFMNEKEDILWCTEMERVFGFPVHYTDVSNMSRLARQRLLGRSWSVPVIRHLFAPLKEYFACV
DNMT3A;DNMT3L, sequence (Q9UJW3 178-386, chain 2 of 2): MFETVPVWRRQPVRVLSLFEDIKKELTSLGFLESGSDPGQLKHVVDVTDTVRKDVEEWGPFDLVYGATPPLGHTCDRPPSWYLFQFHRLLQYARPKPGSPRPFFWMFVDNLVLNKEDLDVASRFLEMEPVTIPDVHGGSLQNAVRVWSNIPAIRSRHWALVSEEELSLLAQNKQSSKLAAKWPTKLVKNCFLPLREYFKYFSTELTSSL

[4] = target: T1, DNMT1 (BAH1-BAH2-MTase fragment); remark: listed apart in the source
[5] = target: T1, DNMT1 (BAH1-BAH2-MTase fragment); remark: listed apart in the source

T1 sequence (P26358 728-1600): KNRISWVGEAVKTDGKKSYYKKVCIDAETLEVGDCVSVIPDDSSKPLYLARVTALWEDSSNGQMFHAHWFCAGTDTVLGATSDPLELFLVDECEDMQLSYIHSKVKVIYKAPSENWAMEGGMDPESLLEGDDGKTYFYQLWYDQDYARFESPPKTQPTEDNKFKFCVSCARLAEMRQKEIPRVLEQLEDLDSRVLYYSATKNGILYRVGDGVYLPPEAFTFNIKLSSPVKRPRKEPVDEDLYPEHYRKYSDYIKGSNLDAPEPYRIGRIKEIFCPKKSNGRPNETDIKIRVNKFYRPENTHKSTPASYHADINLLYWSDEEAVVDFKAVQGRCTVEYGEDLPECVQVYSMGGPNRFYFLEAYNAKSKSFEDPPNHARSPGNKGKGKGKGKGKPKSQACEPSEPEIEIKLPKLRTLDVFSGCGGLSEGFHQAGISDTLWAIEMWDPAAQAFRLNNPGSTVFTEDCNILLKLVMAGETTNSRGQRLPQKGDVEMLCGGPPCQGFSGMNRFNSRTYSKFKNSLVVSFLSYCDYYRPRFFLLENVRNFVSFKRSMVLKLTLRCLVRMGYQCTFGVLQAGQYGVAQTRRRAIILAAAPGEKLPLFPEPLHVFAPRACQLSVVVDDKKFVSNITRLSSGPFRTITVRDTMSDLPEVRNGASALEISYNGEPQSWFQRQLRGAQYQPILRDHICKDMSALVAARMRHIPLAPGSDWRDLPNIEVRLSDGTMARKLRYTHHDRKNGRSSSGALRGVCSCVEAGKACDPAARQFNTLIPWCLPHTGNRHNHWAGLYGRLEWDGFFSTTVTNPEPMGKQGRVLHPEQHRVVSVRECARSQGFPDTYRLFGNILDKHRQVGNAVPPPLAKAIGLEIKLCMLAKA
DNMT3B;DNMT3L, sequence (Q9UJW3 178-386, chain 2 of 2, other chains not shown): as the sequence (Q9UJW3 178-386, chain 2 of 2) above

Binder: ATAGAAGTGGGGGTGAGTCCACTTCTATG (ssDNA) [Steml]
- binding result [1]: binds

Binder: CCCGGGACGCGGGUCCGGGACAG (ssRNA) [R2 RNA]
- binding signal [2]: ~4 fold less binding than Apt. #9

Binder: AGATCTGGGGGTGAGTCCACTTCTG (ssDNA) [Bulge2]
- binding result [1]: binds

Binder: CGTCAGATGTGCGAGTGACATCTCAACGG (ssDNA) [Modified ssDNA #5]
- binding result [3]: no binding

Binder: CGTAGATGTGCTGACATCTACGG (ssDNA) [Modified ssDNA #6]
- binding result [3]: no binding

Binder: AGATGTGCGAGTGACATCTCAACGGCCTAT (ssDNA) [Apt. #11]
- binding result [3]: binds

Binder: CGTAGATGTGCGAGTGACATCTACGG (ssDNA) [Apt. #8]
- binding result [3]: binds

Binder: CCCATGCGTAGGGTCTGATGCCTATGCGTG (ssDNA) [Apt. #10]
- binding result [3]: binds

Binder: AGAAGTGGGGGTGAGTCCACTTCTG (ssDNA) [Apt. #9]
- binding result (DNMT3B;DNMT3L): no binding
- binding result (DNMT3A;DNMT3L): no binding
- Kd [3]: 770 ± 110 nM

Binder: TGCGAGTGACATCTCAACGG (ssDNA) [non-binding ssDNA #12]
- binding result [3]: no binding

B1: hemiDNA 36-mer (dsDNA)
DNA 1: GACGACGACGACGACGACGACGACGACGACGACGAC
DNA 2: GTCGTCGTCGTCGTCGTCGTCGTCGTCGTCGTCGTC
modifications: 5-methylcytosine at every C of strand 2
- binding signal [4]: ~4 fold weaker than Apt. #9

Binder: CAGATGTGCGAGTGACATCTC (ssDNA) [Modified ssDNA #7]
- binding result [5]: no binding
